Columns and labels:
[1] = biological target: T1, human CD3 expressed in Jurkat cells (human, UniProt P07766 23-207; P04234 22-171; P20963 22-164; P09693 23-182); experiment: cell-based or functional assay
[2] = biological target: T2, human FcεR1α expressed on cells (human, UniProt P12319 26-257); experiment: cell-based or functional assay
T2 sequence (looked up): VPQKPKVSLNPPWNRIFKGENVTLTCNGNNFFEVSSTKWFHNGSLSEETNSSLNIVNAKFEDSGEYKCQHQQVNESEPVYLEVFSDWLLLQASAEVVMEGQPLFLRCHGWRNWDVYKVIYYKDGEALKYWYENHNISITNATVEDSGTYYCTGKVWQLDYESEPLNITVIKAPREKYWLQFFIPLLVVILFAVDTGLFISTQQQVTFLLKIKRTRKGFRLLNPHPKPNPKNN

[3] = biological target: T2, human FcεR1α expressed on cells; experiment: cell-based or functional assay; remark: listed apart in the source
[4] = biological target: T1, human CD3 expressed in Jurkat cells; experiment: flow cytometry, 70 nM antibody on Jurkat/NFAT-luc cells, No IgE
Protocol: (§1) For flow cytometry analysis, HEK293, HEK293/hFcεR1α/hFcεR1β/hFcεR1γ and HEK293/mf FcεR1α/hFcεR1β/hFcεR1γ cells were collected after dissociation using Enzyme Free Dissociation Buffer (Millipore Cat# S-004), and the cells were pre-incubated with or without 70 nM human IgE, for 30 minutes on ice in FACS buffer (PBS, without Ca⁺⁺ and Mg⁺⁺, (Irvine Scientific, Cat#9240) containing 2% FBS). Jurkat/NFAT-luc cells were also collected. The antibodies at the concentration of 70 nM were then added to 1×10⁶ cells/well of each cell type at 4° C. for 30 minutes. […] Cells were fixed using BD CytoFix™ (Becton Dickinson, Cat. #554655) and analyzed on Accuri™ C6 (BD) or CytoFLEX Flow cytometer (Beckman Coulter). Unstained and secondary antibody alone controls were also tested for all cell lines and a sample was evaluated for viability using the Far Red Fluo viability dye (Thermo Fisher, Cat#L10120) according to the manufacturer's protocol. The results were analyzed using FlowJo software (version 10.0.8, FlowJo) to determine the geometric means of fluorescence for viable cells and the binding ratio was calculated with the mean fluorescence intensity (MFI) of the experimental condition normalized by the MFI of the unstained respective cells.

[5] = biological target: T2, human FcεR1α expressed on cells; experiment: flow cytometry, 70 nM antibody on HEK293/hFcεR1α/hFcεR1β/hFcεR1γ cells, No IgE
Protocol: as §1

[6] = biological target: T3, monkey (cynomolgus) FcεR1α expressed on cells (cynomolgus); experiment: flow cytometry, 70 nM antibody on HEK293/mfFcεR1α/hFcεR1β/hFcεR1γ cells, No IgE
T3 construct: range 4-260; On HEK293 cells, co-expressed with human FcεR1β and FcεR1γ; also called mfFcεR1α; HEK293/mfFcεR1α/hFcεR1β/hFcεR1γ cells
Protocol: as §1

hFcεR1α.MMH [7] = biological target: T4, hFcεR1α.MMH (human); experiment: SPR (Biacore 8k), antibody captured on anti-human Fc, hFcεR1α.MMH injected, 25°C
T4 construct: also called ectodomain of human FcεR1α with C-term myc-myc-6×His tag
T4 chain: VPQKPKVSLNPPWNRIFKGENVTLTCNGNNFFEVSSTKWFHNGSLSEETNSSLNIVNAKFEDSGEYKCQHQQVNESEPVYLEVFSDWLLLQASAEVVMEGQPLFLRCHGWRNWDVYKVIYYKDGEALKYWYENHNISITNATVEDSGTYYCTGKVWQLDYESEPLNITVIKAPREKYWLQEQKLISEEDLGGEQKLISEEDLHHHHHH
Protocol: (§2) Equilibrium dissociation constants (KD) for human or cynomolgus FcεR1α ectodomain binding to purified anti-FcεR1α monoclonal antibodies (mAbs) and CD3×FcεR1α bispecific antibodies (bsAbs) were determined using a real-time surface plasmon resonance biosensor (SPR-Biacore), Biacore 8k. All binding studies were performed in 10 mM HEPES, 150 mM NaCl, 3 mM EDTA, and 0.05% v/v surfactant Tween-20, pH 7.4 (HBS-ET) running buffer at 25° C. and 37° C.
(§3) The Biacore CM4 sensor surface was first derivatized by amine coupling with a monoclonal mouse anti-human Fc antibody to capture approximately 500-900 RUs anti-FcεR1α monoclonal antibodies or anti-CD3×FcεR1α bispecific monoclonal antibodies. 1 RU (response unit) represents 1 pg of protein per mm², as defined by the manufacturer. The ectodomain of human and cynomolgus FcεR1α reagents were expressed with a C-term myc-myc-6×His tag-hFcεR1α.MMH (SEQ ID NO: 57) and mfFcεR1α.MMH (SEQ ID NO: 58). Different concentrations of FcεR1α reagents were prepared in HBS-ET running buffer (600 nM-7.4 nM; serially diluted by 3-fold) and injected over anti-human Fc captured anti-FcεR1α monoclonal antibodies or anti-CD3×FcεR1α bispecific monoclonal antibodies surfaces for 1 minute at a flow rate of 30 μL/minute. The dissociation of bound FcεR1α reagents was monitored for 4 minutes in HBS-ET running buffer. Association (kₐ) and dissociation (kd) rate constants were determined by fitting the real-time binding sensorgrams to a 1:1 binding model with mass transport limitation using Biacore 8k evaluation software. Binding dissociation equilibrium constants (KD) and dissociative half-lives (t½) were calculated from the kinetic rate constants as: […]

hFcεR1α.MMH [8] = biological target: T4, hFcεR1α.MMH; experiment: SPR (Biacore 8k), antibody captured on anti-human Fc, hFcεR1α.MMH injected, 37°C
Protocol: as §2, §3

mfFcεR1α.MMH [9] = biological target: T5, mfFcεR1α.MMH (cynomolgus (Macaca fascicularis)); experiment: SPR (Biacore 8k), antibody captured on anti-human Fc, mfFcεR1α.MMH injected, 25°C
T5 construct: also called mfFceR1a.MMH; ectodomain of cynomolgus FcεR1α with C-term myc-myc-6×His tag
T5 chain: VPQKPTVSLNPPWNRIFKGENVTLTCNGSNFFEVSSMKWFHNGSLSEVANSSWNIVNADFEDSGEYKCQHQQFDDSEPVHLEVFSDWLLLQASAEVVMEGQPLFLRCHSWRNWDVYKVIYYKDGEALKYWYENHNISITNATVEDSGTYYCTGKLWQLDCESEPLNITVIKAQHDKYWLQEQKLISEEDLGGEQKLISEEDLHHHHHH
Protocol: as §2, §3

mfFcεR1α.MMH [10] = biological target: T5, mfFcεR1α.MMH; experiment: SPR (Biacore 8k), antibody captured on anti-human Fc, mfFcεR1α.MMH injected, 37°C
Protocol: as §2, §3

[11] = biological target: T2, human FcεR1α expressed on cells; experiment: flow cytometry, 70 nM antibody on HEK293/hFcεR1α/hFcεR1β/hFcεR1γ cells pre-incubated with 70 nM human IgE
Protocol: as §1

[12] = biological target: T3, monkey (cynomolgus) FcεR1α expressed on …; experiment: flow cytometry, 70 nM antibody on HEK293/mfFcεR1α/hFcεR1β/hFcεR1γ cells pre-incubated with 70 nM human IgE
Protocol: as §1

T1 sequence (P07766 23-207 limits assumed, chain 1 of 4): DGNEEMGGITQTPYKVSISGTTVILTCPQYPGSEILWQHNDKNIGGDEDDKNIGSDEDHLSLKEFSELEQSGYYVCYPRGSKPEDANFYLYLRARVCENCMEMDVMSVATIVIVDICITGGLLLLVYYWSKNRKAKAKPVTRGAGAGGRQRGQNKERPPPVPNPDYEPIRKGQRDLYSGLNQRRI
T1 sequence (P04234 22-171 limits assumed, chain 2 of 4): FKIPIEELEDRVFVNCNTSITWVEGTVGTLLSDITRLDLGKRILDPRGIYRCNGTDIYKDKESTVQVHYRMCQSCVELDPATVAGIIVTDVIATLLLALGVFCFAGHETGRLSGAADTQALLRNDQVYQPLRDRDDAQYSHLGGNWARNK
T1 sequence (P20963 22-164 limits assumed, chain 3 of 4): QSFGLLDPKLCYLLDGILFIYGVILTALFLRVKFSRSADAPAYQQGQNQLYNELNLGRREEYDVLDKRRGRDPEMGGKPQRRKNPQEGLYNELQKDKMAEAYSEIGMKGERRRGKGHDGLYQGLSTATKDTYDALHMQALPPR
T1 sequence (P09693 23-182 limits assumed, chain 4 of 4): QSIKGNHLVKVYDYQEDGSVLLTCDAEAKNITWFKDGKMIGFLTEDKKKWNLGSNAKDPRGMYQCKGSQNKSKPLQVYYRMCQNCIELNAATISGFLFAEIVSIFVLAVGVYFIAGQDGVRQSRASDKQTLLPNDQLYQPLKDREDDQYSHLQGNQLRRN

B1: bsAb24920D (bispecific antibody, human IgG4 S228P, kappa)
heavy 1: QVQLQESGPGLVKPSETLSLTCTVSGDSINDYYWSWLRQPPGKGLEWIGYIYYSGSTNYNPSLKSRVTISVDTSKNQFSLKLSSVTAADTAVYYCTRRNNWNYVRAFDIWGQGTMVTVSSASTKGPSVFPLAPCSRSTSESTAALGCLVKDYFPEPVTVSWNSGALTSGVHTFPAVLQSSGLYSLSSVVTVPSSSLGTKTYTCNVDHKPSNTKVDKRVESKYGPPCPPCPAPPVAGPSVFLFPPKPKDTLMISRTPEVTCVVVDVSQEDPEVQFNWYVDGVEVHNAKTKPREEQFNSTYRVVSVLTVLHQDWLNGKEYKCKVSNKGLPSSIEKTISKAKGQPREPQVYTLPPSQEEMTKNQVSLTCLVKGFYPSDIAVEWESNGQPENNYKTTPPVLDSDGSFFLYSRLTVDKSRWQEGNVFSCSVMHEALHNHYTQKSLSLSLGK
heavy 2: EVQLVESGGGLVQPGRSLRLSCAASGFTFDDYSMHWVRQAPGKGLEWVSGISWNSGSIGYADSVKGRFTISRDNAKNSLYLQMNSLRAEDTALYYCAKYGSGYGKFYYYGMDVWGQGTTVTVSSASTKGPSVFPLAPCSRSTSESTAALGCLVKDYFPEPVTVSWNSGALTSGVHTFPAVLQSSGLYSLSSVVTVPSSSLGTKTYTCNVDHKPSNTKVDKRVESKYGPPCPPCPAPPVAGPSVFLFPPKPKDTLMISRTPEVTCVVVDVSQEDPEVQFNWYVDGVEVHNAKTKPREEQFNSTYRVVSVLTVLHQDWLNGKEYKCKVSNKGLPSSIEKTISKAKGQPREPQVYTLPPSQEEMTKNQVSLTCLVKGFYPSDIAVEWESNGQPENNYKTTPPVLDSDGSFFLYSRLTVDKSRWQEGNVFSCSVMHEALHNRFTQKSLSLSPGK
light: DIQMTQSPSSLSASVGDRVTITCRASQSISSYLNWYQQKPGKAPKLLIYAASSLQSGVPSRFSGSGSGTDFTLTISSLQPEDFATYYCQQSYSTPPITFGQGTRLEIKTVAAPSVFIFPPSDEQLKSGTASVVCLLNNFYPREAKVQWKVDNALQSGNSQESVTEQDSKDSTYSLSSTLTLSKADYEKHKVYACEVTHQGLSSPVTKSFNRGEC
notes: IgG4 Fc domain; two distinct heavy chains with a common light chain; also called anti-FcεR1α×CD3 bispecific antibody; FcεR1α × hCD3
In the case of B1, the “EC50 [M], NFAT-luciferase in Jurkat/NFAT-luc with HEK293/hFcεR1α/hFcεR1β/hFcεR1γ cells, 10 nM IgE” value [1] is reported as 4.9e-09 M, the “EC50 [M], NFAT-luciferase in Jurkat/NFAT-luc with HEK293/hFcεR1α/hFcεR1β/hFcεR1γ cells, No IgE” value [1] is reported as 6.8e-10 M and the “Fold Activation, Jurkat/NFAT-luc with HEK293/hFcεR1α/hFcεR1β/hFcεR1γ cells, 10 nM IgE” value [1] is reported as 25 fold. For the same binder, the “Fold Activation, Jurkat/NFAT-luc with HEK293/hFcεR1α/hFcεR1β/hFcεR1γ cells, No IgE” value [1] was 23 fold, the “EC80, cleaved caspase 3+ cleaved PARP+ HEK293/hFcεR1α/hFcεR1β/hFcεR1γ target cells with activated CD8+ T cells” value [2] was 0.126 nM and the “Maximum percent apoptotic cells, HEK293/hFcεR1α/hFcεR1β/hFcεR1γ target cells with activated CD8+ T cells” value [2] was 56.5%. The “EC50, decrease of primary human basophils within PBMC with activated CD8+ T cells” value [3] was 20 nM, the “Maximum percent basophil decrease, PBMC with activated CD8+ T cells” value [3] was 80.1% and the “Binding Ratio (MFI of Treated/MFI of Unstained)” value [4] was 48. For the same binder, the “Binding Ratio (MFI of Treated/MFI of Unstained)” value [5] was 248, the “Binding Ratio (MFI of Treated/MFI of Unstained)” value [6] was 142 and the “600 nM hFcεR1α.MMH Bound (RU)” value (hFcεR1α.MMH [7]) was 46 RU. The Kd (hFcεR1α.MMH [7]) was 303 nM, the koff (hFcεR1α.MMH [7]) was 0.02 s⁻¹ and the kon (hFcεR1α.MMH [7]) was 65900 M⁻¹ s⁻¹. For the same binder, the t½ (hFcεR1α.MMH [7]) was 36 s, the “600 nM hFcεR1α.MMH Bound (RU)” value (hFcεR1α.MMH [8]) was 19 RU and the Kd (hFcεR1α.MMH [8]) was 1550 nM. The koff (hFcεR1α.MMH [8]) was 0.0991 s⁻¹, the kon (hFcεR1α.MMH [8]) was 63900 M⁻¹ s⁻¹ and the t½ (hFcεR1α.MMH [8]) was 7.2 s. The “600 nM mfFceR1a.MMH Bound (RU)” value (mfFcεR1α.MMH [9]) was 26 RU, the Kd (mfFcεR1α.MMH [9]) was 467 nM and the koff (mfFcεR1α.MMH [9]) was 0.0195 s⁻¹. For the same binder, the kon (mfFcεR1α.MMH [9]) was 41700 M⁻¹ s⁻¹, the t½ (mfFcεR1α.MMH [9]) was 36 s and the “600 nM mfFceR1a.MMH Bound (RU)” value (mfFcεR1α.MMH [10]) was 10 RU. For the same binder, the Kd (mfFcεR1α.MMH [10]) was 3350 nM, the koff (mfFcεR1α.MMH [10]) was 0.0445 s⁻¹ and the kon (mfFcεR1α.MMH [10]) was 13300 M⁻¹ s⁻¹. The t½ (mfFcεR1α.MMH [10]) was 15.6 s, the “Binding Ratio (MFI of Treated/MFI of Unstained)” value [11] was 201 and the “Binding Ratio (MFI of Treated/MFI of Unstained)” value [12] was 169.
